Where a chain is given by its changes, count along the chain named.

Assay [1] concerns SNU601 cells expressing CLDN18.2. As to the kind of experiment: Endocytosis of antibody after binding to SNU601 cells stably expressing CLDN18.2. The settings on record: 10 μg/ml, 4 h. Format: cell-based. The method, then:
It has been reported that the binding of some antibodies to cell surface antigens can cause endocytosis of antigen and antibody complexes, thereby reducing the expression level of the cell surface antigens and accelerating antibody metabolism in vivo (Schrama D et al., 2006, Nat Rev Drug Discov). In this example, the ability of antibodies 18.2-A1, 18.2-A3, 18.2-A4 and 18.2-A6 to be endocytosed by cells was tested in SNU601 cells stably expressing CLDN18.2. […] Subsequently, they were washed at 4° C. and stained with PE-labeled anti-human IgG antibody. After fixation with 4% formalin, antibody binding on the cell surface was tested by flow cytometry.

Assay [2] relates to control CT26 cell line. As to the kind of experiment: Flow cytometry binding to control CT26 cell line. The note with it: results not shown. Background: Flow cytometry measures light scatter and fluorescence of single cells or particles in a stream.
For assay [3], the target named is T1, CLDN18.2 (CT26-CLDN18.2 cells) (Homo sapiens, UniProt P56856).
T1 construct: expressed in transfected cells; host or cells: CT26 cells (mouse), lentiviral transduction, puromycin selection
Nature of the assay: Flow cytometry binding of recombinant antibodies to CT26-CLDN18.2 cells. The settings on record: 4° C. 1 hour. On the procedure:
Binding activities of the recombinant monoclonal antibodies to CLDN18.2 were determined. Specifically, well-grown cell lines stably expressing CT26-CLDN18.2 were taken. The cells were washed with PBS, mixed with the fold-diluted antibody and incubated at 4° C. for 1 hour. The cells were washed once with flow cytometry buffer, PE-labeled anti-human IgG antibody was added, and incubated at 4° C. for 30 minutes. The supernatant was removed by centrifugation, and after the cells were washed with flow cytometry buffer, the fluorescence intensity on the surface of the cells was tested by flow cytometry. The relative binding activity of each antibody was calculated using the average fluorescence intensity.
The binding activity of the defucosylated antibodies 18.2-A1F, 18.2-A3F and 18.2-A4F to CLDN18.2 as compared to the binding activity of 18.2-A1, 18.2-A3 and 18.2-A4 to CLDN18.2 was tested by flow cytometry, the method of which is as described in Example 5, and the experimental results are shown in FIG. 7.

For assay [4], the target named is T2, CLDN18.2 (CLDN18.2-Flag 293t cells) (Homo sapiens, UniProt P56856).
T2 construct: expressed in transfected cells; host or cells: 293t cells, transient transfection
As to the kind of experiment: Binding specificity, 293t cells expressing CLDN18.2-Flag, flow cytometry. The settings on record: 10 μg/ml antibody, 4° C. 1 hour. The source says:
(§1) Human Claudin18 proteins include two homologues, i.e., CLDN18.1 and CLDN18.2, which share exons other than exon 1, and the exon 1 sequences of CLDN18.1 and CLDN18.2 are highly similar with only 8 different amino acids in the first extracellular region. The exon 1 of CLDN18.1 and the exon 1 of CLDN18.2 are specifically expressed in different tissues driven by different promoters. Among them, CLDN18.1 is specifically expressed in lung epithelial cells, while CLDN18.2 is specifically expressed in gastric epithelial cells. To identify the specificity of the screened CLDN18.2 antibodies, binding of the antibodies to CLDN18.1 and CLDN18.2 was tested.
(§2) Specifically, well-grown 293t cells were taken to transiently express flag-tagged CLDN18.1 (CLDN18.1-Flag) or CLDN18.2 (CLDN18.2-Flag). 48 hours after transfection, the cells were digested with trypsin. After washed with flow cytometry buffer, the cells were mixed with 10 μg/ml of isotype control antibody or one of the above five CLDN18.2 antibodies in 200 μl of flow cytometry buffer, and were incubated at 4° C. for 1 hour. Subsequently, the cells were washed once with flow cytometry buffer, PE-labeled anti-human IgG antibody was added, and incubated at 4° C. for 30 min. The supernatant was removed by centrifugation, wash was performed twice with flow cytometry buffer, and the cells were fixed in a fix solution containing 1% paraformaldehyde and 0.5% triton-X100 and the cell membrane was permeabilized. Subsequently, the cells were incubated with APC-labeled anti-flag antibody for 30 min and tested by flow cytometry.

Assay [5] has as its target T3, CLDN18.1 (CLDN18.1-Flag 293t cells) (Homo sapiens, UniProt P56856).
T3 construct: expressed in transfected cells; host or cells: 293t cells, transient transfection
As to the kind of experiment: Binding specificity, 293t cells expressing CLDN18.1-Flag, flow cytometry. The note with it: 10 μg/ml antibody, 4° C. 1 hour.
Excerpt: as §1, §2

The subject of assay [6] is untransfected Jurkat cells. As to the kind of experiment: Flow cytometry binding to untransfected Jurkat cells. The note with it: results not shown.
Assay [7] concerns human FcγRIIIa (V158) on FcγRIIIa-Jurkat cells. Nature of the assay: Flow cytometry binding to FcγRIIIa-Jurkat cells. The source says:
We next further tested the binding activity of the CLDN18.2 antibodies and their defucosylated forms to FcγRIIIa expressed on the cell surface. Specifically, the human FcγRIIIa (V158, high FC binding subtype) gene was cloned into a mammalian cell expression vector carrying a puromycin screening marker and transfected into a Jurkat cell line. A cell line stably expressing FcγRIIIa (FcγRIIIa-Jurkat) was screened with puromycin. In addition, NK92MI is a human NK cell line that naturally expresses the FcγRIIIa receptor (F158, low FC binding subtype). The binding ability of the CLDN18.2 antibodies and their defucosylated forms to FcγRIIIa expressed on the surface of FcγRIIIa-jurkat cells and NK92MI cells was tested by flow cytometry. The specific flow cytometry assay is described with reference to Example 6.

In the case of “IMAB362: CLDN18.2 specific antibody (IMAB362, Ganymed) [reference compound]”, in assay [1], the “binding to SNU601 cells expressing CLDN18.2 under 4° C. incubation” value (from here on “binding … under 4° C. incubation”) is “bound well” and the “antibody staining/binding on the cell surface under 37° C. incubation” value (from here on “antibody staining/binding”) is listed as “decreased significantly”.

B1: 18.2-A2: recombinant monoclonal CLDN18.2 antibody, VH SEQ ID NO: 11, VL SEQ ID NO: 16 (antibody, V domains shown)
VH: EVQLVQSGAEVKKPGASVKVSCKASGYTFTSFWVGWVRQAPGQGLEWIGNVSPSDSYTNYNQKFKDRATLTVDKSTSTAYMELSSLRSEDTAVYYCTRLSSGNSFDYWGQGTLVTVSS
VL: DIVMTQSPDSLSVSLGERATINCKSSQSVLNSGNQKNYLTWYQQKPGQPPKLLIYWSSTKQSGVPDRFSGSGSGTDFTLTISSLQAEDVAVYYCQNAFSFPFTFGQGTKVEIK
modifications: 18.2-A2 VH; 18.2-A2 VL
Turning to B1, the “binding to control CT26 cell line” value in assay [2] is given as “did not bind”. In assay [3], the “binding to CT26 cell line expressing CLDN18.2” value was “able to bind well”. Also, the “binding to CLDN18.2-flag transfected positive 293t cells” value in assay [4] is reported as “able to bind well”. The “binding to CLDN18.1-positive cells” value in assay [5] was “none of the six antibodies bound”.

B2: 18.2-A6: recombinant monoclonal CLDN18.2 antibody, VH SEQ ID NO: 55, VL SEQ ID NO: 60 (antibody, V domains shown)
VH: B1 VH with F32Y, V34L, N50I, V51I, S52Y, L99F, S100W, S101R
VL: DIVMTQSPDSLTIGLGERATINCKSSQSLLNSGNQKNYLTWYQQKPGQPPKLLIYWAAGKESGVPDRFSGSGSGTDFTLTISSLQAEDVAVYYCQNGYSHPFTFGQGTKVEIK
modifications: 18.2-A6 VH; 18.2-A6 VL
For B2, the “binding to control CT26 cell line” value in assay [2] is “did not bind”. The “binding to CT26 cell line expressing CLDN18.2” value in assay [3] was “able to bind well”. Further, in assay [4], the “binding to CLDN18.2-flag transfected positive 293t cells” value is “able to bind well”. Moreover, in assay [1], the “binding … under 4° C. incubation” value is “bound well”, the “antibody staining/binding” value is reported as “still bound well” and the “endocytosis by cells under 37° C. incubation” value (“endocytosis by cells” for short) was “did not undergo significant endocytosis”. Besides, the “binding to CLDN18.1-positive cells” value in assay [5] is given as “none of the six antibodies bound”.

B3: 18.2-A4: recombinant monoclonal CLDN18.2 antibody, VH SEQ ID NO: 31, VL SEQ ID NO: 36 (antibody, V domains shown)
VH: B1 VH with V34I, G35S, V51I, S52L, L99Y, S100W, S101R
VL: DIVMTQSPDSLALALGERATINCKSSQSIINSGNQKNYLTWYQQKPGQPPKLLIYWGGTRHSGVPDRFSGSGSGTDFTLTISSLQAEDVAVYYCQNGYYSPFTFGQGTKVEIK
modifications: 18.2-A4 VH; 18.2-A4 VL
For B3, in assay [2], the “binding to control CT26 cell line” value is given as “did not bind”. Also, the “binding to CT26 cell line expressing CLDN18.2” value in assay [3] is “able to bind well”. The “binding to CLDN18.2-flag transfected positive 293t cells” value in assay [4] is “able to bind well”. The “binding to untransfected Jurkat cells” value in assay [6] is listed as “not able to bind”. For the same molecule, in assay [1], the “binding … under 4° C. incubation” value is “bound well”, the “antibody staining/binding” value was “still bound well” and the “endocytosis by cells” value is on record as “did not undergo significant endocytosis”. In assay [5], the “binding to CLDN18.1-positive cells” value is “none of the six antibodies bound”. Besides, the “binding to FcγRIIIa-jurkat cells” value in assay [7] was “able to bind”.

B4: 18.2-A5: recombinant monoclonal CLDN18.2 antibody, VH SEQ ID NO: 41, VL SEQ ID NO: 46 (antibody, V domains shown)
VH: B1 VH with F32S, V51S, S52Y, S100G, S101R
VL: DIVMTQSPDSLTVALGERATINCKSSQSLIHSGNQKNYLTWYQQKPGQPPKLLIYWGLSKNSGVPDRFSGSGSGTDFTLTISSLQAEDVAVYYCQNSIYYPFTFGQGTKVEIK
modifications: 18.2-A5 VH; 18.2-A5 VL
For B4, in assay [2], the “binding to control CT26 cell line” value is recorded as “did not bind”. In addition, the “binding to CT26 cell line expressing CLDN18.2” value in assay [3] is “able to bind well”. The “binding to CLDN18.2-flag transfected positive 293t cells” value in assay [4] is listed as “able to bind well”. In assay [5], the “binding to CLDN18.1-positive cells” value was “none of the six antibodies bound”.

B5: 18.2-A3: recombinant monoclonal CLDN18.2 antibody, VH SEQ ID NO: 21, VL SEQ ID NO: 26 (antibody, V domains shown)
VH: B1 VH with F32Y, V34L, G35N, N50S, V51M, S52Y, L99F, S101R
VL: B1 VL with S12T, S14A, V29L, N31E, S58W, T59A, Q61N, F98Y, S99A
modifications: 18.2-A3 VH; 18.2-A3 VL
Turning to B5, the “binding to control CT26 cell line” value in assay [2] is on record as “did not bind”. For the same molecule, the “binding to CT26 cell line expressing CLDN18.2” value in assay [3] is given as “able to bind well”. The “binding to CLDN18.2-flag transfected positive 293t cells” value in assay [4] was “able to bind well”. In assay [1], the “binding … under 4° C. incubation” value is on record as “bound well”, the “antibody staining/binding” value is on record as “still bound well” and the “endocytosis by cells” value is “did not undergo significant endocytosis”. Besides, the “binding to CLDN18.1-positive cells” value in assay [5] was “none of the six antibodies bound”.

The values are drawn from patent US12662531B2, “CLDN18.2 antibody and use thereof” (FUTUREGEN BIOPHARMACEUTICAL (BEIJING) CO., LTD., priority 2019, dated 2026).
